± gives the standard deviation of the averaged measurements.

This series relates to ATP. Briefly: switch fluorescence ratio, 500 uM ATP over buffer (Cy3 cluster intensity, sum of 5 cycles each) (fold (ratio)); higher = stronger signal-on switching upon ATP binding; sequences stand for … in TCGTCGGCAGCGTCAGATGTGTATAAGAGACAGTTTTTTTTTTTTTTTTTTTTTTTTT…TC. The following applies: aptamer strand: ATP DNA aptamer (quencher-CACCTGGGGGAGTATTGCGGAGGAAGG + anchor), 100 nM annealed; ATP concentration: 500 uM. In short, it runs like this:
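Between each of five buffer/ATP cycles, the flow-cell was stripped with NaOH and re-annealed. Each cycle imaged Cy3-labelled switching-strand clusters, annealed to 100 nM quencher-labelled ATP aptamer on a modified Illumina MiSeq flow-cell, first in selection buffer and then after 15 min with 500 uM ATP at 22 °C. The fluorescence ratio is summed target-cycle over summed buffer-cycle Cy3 intensity per cluster, averaged per switch-domain sequence, with clusters outside 100-1000 RFU excluded.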
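Note: ATP exposure 15 min at 22 °C before imaging.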

Turning to TCAACTATTT, the switch fluorescence ratio came to 0.972 ± 0.031.
As to CGAGTCAGA, the switch fluorescence ratio turned out to be 1.067 ± 0.0096.
The figure for ATTATACGGG is 1.052 ± 0.007; for CCTGGGGGCC it is 1 ± 0.013.
The figure for CAAAGTTGGT is 0.994 ± 0.05; for CCCATTTAGT it is 1.04 ± 0.023.
The figure for CTTGTTAGGG is 0.996 ± 0.032.
In the case of ACTTCCGCGA, the switch fluorescence ratio was found to be 1.75 ± 0.11.
The figure for CGCCTGGCTT is 1 ± 0.013.
The figure for GAGGATGTCT is 0.99 ± 0.021; for AGAAATTTGA it is 0.98 ± 0.013; for ATGGTTAGCT it is 1.02 ± 0.027.
Turning to ACCCGAGCAT, the switch fluorescence ratio worked out at 1.79 ± 0.12.
As for TTTGCTATAG, the switch fluorescence ratio worked out at 1.23 ± 0.28.
Consider GTTTTTTATT, for which the switch fluorescence ratio was 0.996 ± 0.033.
Next, AGGGGGGCCT: 0.989 ± 0.087; GTTTTTTAGG: 0.978 ± 0.0056; AATGCAGATT: 1.031 ± 0.008.
Next, TCGGAGACTC: 1.05 ± 0.022.
The figure for TTTTTGAGGT is 1 ± 0.025; for ATTTCCGCAG it is 3.82 ± 0.56.
AAAACGAGTC: the switch fluorescence ratio is 1.07 ± 0.031.
Next, TTTTATAGGA: 0.976 ± 0.006.
Next, GCCACAAATT: 1.01 ± 0.033; GGTATGAAGG: 0.9664 ± 0.0095.
For GTATGGGGGG, the switch fluorescence ratio came to 0.985 ± 0.026.
Next, TAATTAGGAA: 1.02 ± 0.03.
Next, GTTGGAGGGA: 1.01 ± 0.032; CGGAGTGGTA: 1.09 ± 0.014; ACCTTAAGGG: 1.01 ± 0.015.
In the case of GGGACGATGG, the switch fluorescence ratio is 0.9857 ± 0.0013.
Next, TTCAAAATTA: 0.9913 ± 0.0096; GGGGATATTT: 1 ± 0.014; TGGTCGCGAT: 1.53 ± 0.73.
The figure for ATTTGCGGTG is 1.01 ± 0.019; for TAAAAGGGGT it is 1.01 ± 0.05.
For the sequence TCTTGAACGT, the switch fluorescence ratio turned out to be 0.978 ± 0.018.
As for TTGTATATGC, the switch fluorescence ratio was 1.16 ± 0.23.
As for GGTGTTAGGG, the switch fluorescence ratio is 1.02 ± 0.027.
In the case of ACGCAGGGGG, the switch fluorescence ratio stood at 0.989 ± 0.034.
In the case of ACGGATTGTG, the switch fluorescence ratio turned out to be 0.971 ± 0.0099.
The figure for CTTGTCTGAG is 0.9818 ± 0.0096; for AGACCTTGGT it is 0.963 ± 0.03.
For the sequence TACGTTTCT, the switch fluorescence ratio amounted to 1 ± 0.054.
Take TTACTTATAA: the switch fluorescence ratio is 1.04 ± 0.018.
Next, GGTTTGGGGC: 1.03 ± 0.074; TAGAAAGGGT: 1.01 ± 0.041.
Consider CCAGGCACTG, for which the switch fluorescence ratio was found to be 1.03 ± 0.021.
Next, CAGATGTGTT: 0.9728 ± 0.0031.
Next, GGGTTAGGGC: 0.988 ± 0.023; TCAAATAGGC: 1.016 ± 0.01; GATGTCTATC: 1.01 ± 0.011.
Next, TTAATGTGGC: 0.986 ± 0.015; AGAGAGGAGG: 0.997 ± 0.066.
Turning to TGGGTTGATA, the switch fluorescence ratio is 0.9958 ± 0.0069.
The figure for CCAGTAGTCC is 1.14 ± 0.0031; for GCATTGTAGG it is 0.972 ± 0.041.
The figure for TTGTCGGGCC is 0.964 ± 0.039; for CACTGGAGAG it is 1.039 ± 0.0048.
The figure for TGTGTGCCGG is 0.9332 ± 0.0057.
Consider TCCAGTCATT, for which the switch fluorescence ratio stood at 0.998 ± 0.01.
As for GTTTTCGGGA, the switch fluorescence ratio was 1.03 ± 0.013.
Next, ACACATGTAT: 1 ± 0.045.
The figure for TGAAATTTG is 1.01 ± 0.03; for AGATTAGTAT it is 1.02 ± 0.056.
The figure for ATGCAGGTAT is 1.01 ± 0.049; for AGATAGAGTG it is 0.996 ± 0.02; for AATCTTGGGC it is 0.9771 ± 0.0096.
On to GTTATTGCGT, for which the switch fluorescence ratio came to 0.982 ± 0.05.
Next, TTATGGGTCA: 0.983 ± 0.025; TTTTGGTGGA: 0.988 ± 0.014; AAGTTTGAAG: 0.974 ± 0.01.
Next, AGATTGGAGG: 0.957 ± 0.028; GAAGCGGGGC: 1.36 ± 0.064.
Next, GCCTTTTTTT: 0.991 ± 0.029; TAAATTCAGA: 0.994 ± 0.031; ACGCGGGGGG: 1.02 ± 0.029.
As to GCGACAGGAC, the switch fluorescence ratio came out at 1.48 ± 0.12.
For the sequence ATTGAAGGCG, the switch fluorescence ratio came out at 1 ± 0.038.

Source of the values: the supplement of paper PMC10126150.
